From US20220306765A1 (SUZHOU TRANSCENTA THERAPEUTICS, published 2022)

Columns and labels:
human CLDN18.2 = molecular target: T1, human CLDN18.2 (human); assay: FACS, NUGC4 cells
T1 construct: also called hCLDN18.2; Claudin-18 splice variant 2

human CLDN18.2-mRFP Y66A = human CLDN18.2-mRFP Y66A (human); assay: FACS, transfected HEK293, 10 µg/ml antibody;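 note: antibody binding detected by flow cytometry with FITC-labelled anti-human IgG secondary, gated on RFP-positive cells, mutant signal relative to wild-type CLDN18.2-mRFP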
Procedure: (§1) The transfected HEK293-CLDN18.2 or HEK293-CLDN18.1 cell were resuspended in PBS with 2% BSA at density of 10\hat{ }5/well, 100 μl/well. […] Next, cells were washed 3 times by FACS washing buffer and incubated with 100 μl/well goat anti-hIgG (H+L)-FITC (1:200 dilution) at 4° C. for another 30 min. Finally, cells were washed 3 times by FACS washing buffer and analyzed by Flow Cytometry. To analyze binding to CLDN18.2 transfected cells, the RFP positive cells were used for control gating.
(§2) Subsequently, these plasmids of mutants and wild-type CLDN18.2-mRFP were transfected into HEK293 cell.

human CLDN18.2-mRFP V43A = human CLDN18.2-mRFP V43A (human); assay: FACS, transfected HEK293, 10 µg/ml antibody;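 note: antibody binding detected by flow cytometry with FITC-labelled anti-human IgG secondary, gated on RFP-positive cells, mutant signal relative to wild-type CLDN18.2-mRFP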
Procedure: as §1, §2

human CLDN18.2-mRFP Y36A = human CLDN18.2-mRFP Y36A (human); assay: FACS, transfected HEK293, 10 µg/ml antibody;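 note: antibody binding detected by flow cytometry with FITC-labelled anti-human IgG secondary, gated on RFP-positive cells, mutant signal relative to wild-type CLDN18.2-mRFP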
Procedure: as §1, §2

human CLDN18.2-mRFP E56A = human CLDN18.2-mRFP E56A (human); assay: FACS, transfected HEK293, 10 µg/ml antibody;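 note: antibody binding detected by flow cytometry with FITC-labelled anti-human IgG secondary, gated on RFP-positive cells, mutant signal relative to wild-type CLDN18.2-mRFP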
Procedure: as §1, §2

human CLDN18.2-mRFP V40A = human CLDN18.2-mRFP V40A (human); assay: FACS, transfected HEK293, 10 µg/ml antibody
Procedure: as §1, §2

human CLDN18.2-mRFP L76A = human CLDN18.2-mRFP L76A (human); assay: FACS, transfected HEK293, 10 µg/ml antibody
Procedure: as §1, §2

human CLDN18.2-mRFP L69A = human CLDN18.2-mRFP L69A (human); assay: FACS, transfected HEK293, 10 µg/ml antibody
Procedure: as §1, §2

human CLDN18.2-mRFP E62A = human CLDN18.2-mRFP E62A (human); assay: FACS, transfected HEK293, 10 µg/ml antibody
Procedure: as §1, §2

human CLDN18.2-mRFP F44A = human CLDN18.2-mRFP F44A (human); assay: FACS, transfected HEK293, 10 µg/ml antibody
Procedure: as §1, §2

human CLDN18.2-mRFP S31A = human CLDN18.2-mRFP S31A (human); assay: FACS, transfected HEK293, 10 µg/ml antibody
Procedure: as §1, §2

human CLDN18.2-mRFP L72A = human CLDN18.2-mRFP L72A (human); assay: FACS, transfected HEK293, 10 µg/ml antibody
Procedure: as §1, §2

human CLDN18.2-mRFP Q33A = human CLDN18.2-mRFP Q33A (human); assay: FACS, transfected HEK293, 10 µg/ml antibody
Procedure: as §1, §2

human CLDN18.2-mRFP T32A = human CLDN18.2-mRFP T32A (human); assay: FACS, transfected HEK293, 10 µg/ml antibody
Procedure: as §1, §2

human CLDN18.2-mRFP L70A = human CLDN18.2-mRFP L70A (human); assay: FACS, transfected HEK293, 10 µg/ml antibody
Procedure: as §1, §2

human CLDN18.2-mRFP T61A = human CLDN18.2-mRFP T61A (human); assay: FACS, transfected HEK293, 10 µg/ml antibody
Procedure: as §1, §2

human CLDN18.2-mRFP R55A = human CLDN18.2-mRFP R55A (human); assay: FACS, transfected HEK293, 10 µg/ml antibody
Procedure: as §1, §2

human CLDN18.2-mRFP V79A = human CLDN18.2-mRFP V79A (human); assay: FACS, transfected HEK293, 10 µg/ml antibody
Procedure: as §1, §2

human CLDN18.2-mRFP D34A = human CLDN18.2-mRFP D34A (human); assay: FACS, transfected HEK293, 10 µg/ml antibody
Procedure: as §1, §2

human CLDN18.2-mRFP N38A = human CLDN18.2-mRFP N38A (human); assay: FACS, transfected HEK293, 10 µg/ml antibody
Procedure: as §1, §2

human CLDN18.2-mRFP Q77A = human CLDN18.2-mRFP Q77A (human); assay: FACS, transfected HEK293, 10 µg/ml antibody
Procedure: as §1, §2

human CLDN18.2-mRFP R51A = human CLDN18.2-mRFP R51A (human); assay: FACS, transfected HEK293, 10 µg/ml antibody
Procedure: as §1, §2

human CLDN18.2-mRFP L49A = human CLDN18.2-mRFP L49A (human); assay: FACS, transfected HEK293, 10 µg/ml antibody
Procedure: as §1, §2

human CLDN18.2-mRFP F60A = human CLDN18.2-mRFP F60A (human); assay: FACS, transfected HEK293, 10 µg/ml antibody
Procedure: as §1, §2

human CLDN18.2-mRFP W30A = human CLDN18.2-mRFP W30A (human); assay: FACS, transfected HEK293, 10 µg/ml antibody
Procedure: as §1, §2

human CLDN18.2-mRFP R80A = human CLDN18.2-mRFP R80A (human); assay: FACS, transfected HEK293, 10 µg/ml antibody
Procedure: as §1, §2

human CLDN18.2-mRFP Q47A = human CLDN18.2-mRFP Q47A (human); assay: FACS, transfected HEK293, 10 µg/ml antibody
Procedure: as §1, §2

human CLDN18.2-mRFP T68A = human CLDN18.2-mRFP T68A (human); assay: FACS, transfected HEK293, 10 µg/ml antibody
Procedure: as §1, §2

human CLDN18.2-mRFP T41A = human CLDN18.2-mRFP T41A (human); assay: FACS, transfected HEK293, 10 µg/ml antibody
Procedure: as §1, §2

human CLDN18.2-mRFP R64A = human CLDN18.2-mRFP R64A (human); assay: FACS, transfected HEK293, 10 µg/ml antibody
Procedure: as §1, §2

human CLDN18.2-mRFP S58A = human CLDN18.2-mRFP S58A (human); assay: FACS, transfected HEK293, 10 µg/ml antibody
Procedure: as §1, §2

human CLDN18.2-mRFP F67A = human CLDN18.2-mRFP F67A (human); assay: FACS, transfected HEK293, 10 µg/ml antibody
Procedure: as §1, §2

human CLDN18.2-mRFP S57A = human CLDN18.2-mRFP S57A (human); assay: FACS, transfected HEK293, 10 µg/ml antibody
Procedure: as §1, §2

human CLDN18.2-mRFP V54A = human CLDN18.2-mRFP V54A (human); assay: FACS, transfected HEK293, 10 µg/ml antibody
Procedure: as §1, §2

human CLDN18.2-mRFP Y46A = human CLDN18.2-mRFP Y46A (human); assay: FACS, transfected HEK293, 10 µg/ml antibody
Procedure: as §1, §2

human CLDN18.2-mRFP N37A = human CLDN18.2-mRFP N37A (human); assay: FACS, transfected HEK293, 10 µg/ml antibody
Procedure: as §1, §2

human CLDN18.2-mRFP W50A = human CLDN18.2-mRFP W50A (human); assay: FACS, transfected HEK293, 10 µg/ml antibody
human CLDN18.2-mRFP W50A (human), sequence (chain, as listed by the source W50A W50A limits assumed): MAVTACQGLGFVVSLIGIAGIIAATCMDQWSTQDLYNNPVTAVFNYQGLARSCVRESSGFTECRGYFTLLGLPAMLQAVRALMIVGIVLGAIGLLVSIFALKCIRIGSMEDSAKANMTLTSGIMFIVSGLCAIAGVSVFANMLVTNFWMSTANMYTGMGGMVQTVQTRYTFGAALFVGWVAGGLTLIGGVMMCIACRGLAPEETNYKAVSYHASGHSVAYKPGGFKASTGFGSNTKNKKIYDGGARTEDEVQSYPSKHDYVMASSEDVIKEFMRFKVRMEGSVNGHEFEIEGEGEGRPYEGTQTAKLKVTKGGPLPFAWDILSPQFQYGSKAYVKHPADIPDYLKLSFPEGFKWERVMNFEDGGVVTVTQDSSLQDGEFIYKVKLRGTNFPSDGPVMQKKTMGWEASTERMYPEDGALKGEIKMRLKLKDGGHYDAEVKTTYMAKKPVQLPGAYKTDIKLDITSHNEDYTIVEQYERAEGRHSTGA
Procedure: as §1, §2

human CLDN18.2-mRFP V79A (human), sequence (chain, as listed by the source V79A V79A limits assumed): as the sequence (chain, as listed by the source W50A W50A limits assumed) above, with A50W, V79A counted along it
human CLDN18.2-mRFP R51A (human), sequence (chain, as listed by the source R51A R51A limits assumed): as the sequence (chain, as listed by the source W50A W50A limits assumed) above, with A50W, R51A counted along it
human CLDN18.2-mRFP R55A (human), sequence (chain, as listed by the source R55A R55A limits assumed): as the sequence (chain, as listed by the source W50A W50A limits assumed) above, with A50W, R55A counted along it
human CLDN18.2-mRFP L70A (human), sequence (chain, as listed by the source L70A L70A limits assumed): as the sequence (chain, as listed by the source W50A W50A limits assumed) above, with A50W, L70A counted along it
human CLDN18.2-mRFP L49A (human), sequence (chain, as listed by the source L49A L49A limits assumed): as the sequence (chain, as listed by the source W50A W50A limits assumed) above, with L49A, A50W counted along it
human CLDN18.2-mRFP E62A (human), sequence (chain, as listed by the source E62A E62A limits assumed): as the sequence (chain, as listed by the source W50A W50A limits assumed) above, with A50W, E62A counted along it
human CLDN18.2-mRFP V40A (human), sequence (chain, as listed by the source V40A V40A limits assumed): as the sequence (chain, as listed by the source W50A W50A limits assumed) above, with V40A, A50W counted along it
human CLDN18.2-mRFP Q77A (human), sequence (chain, as listed by the source Q77A Q77A limits assumed): as the sequence (chain, as listed by the source W50A W50A limits assumed) above, with A50W, Q77A counted along it
human CLDN18.2-mRFP W30A (human), sequence (chain, as listed by the source W30A W30A limits assumed): as the sequence (chain, as listed by the source W50A W50A limits assumed) above, with W30A, A50W counted along it

B1: 59A9-C (antibody, human IgG1, V domains shown)
VH: QITQKESGPGILQPSQTLSLTCSLSGFSLSTYFIGVGWIRQPSGKGLEWLAHIWWNDNKYYNTALKSRLTISKDTSNNQVFLKIASVDTADTATYYCARMGSGAWFTYWGQGTLVTVSA
VL: DIVMTQSPSSLTVTAGEKVTMSCKSSQSLLNSGNQKNYLTWYQQKPGQPPKLLIYWASTRESGVPDRFTGSGSGTDFTLTISSVQAEDLAVYYCQNDYYYPLTFGSGTKLEIK
notes: also called chimeric 59A9
EC50 (human CLDN18.2): 19.1 µg/mL | binding percentage vs wild-type CLDN18.2 (human CLDN18.2-mRFP Y66A): 52.5% | binding percentage vs wild-type CLDN18.2 (human CLDN18.2-mRFP V43A): 59.4% | binding percentage vs wild-type CLDN18.2 (human CLDN18.2-mRFP Y36A): 78% | binding percentage vs wild-type CLDN18.2 (human CLDN18.2-mRFP E56A): 21.9% | binding percentage vs wild-type CLDN18.2 (human CLDN18.2-mRFP V40A): 128% | binding percentage vs wild-type CLDN18.2 (human CLDN18.2-mRFP L76A): 52.1% | binding percentage vs wild-type CLDN18.2 (human CLDN18.2-mRFP L69A): 54.8% | binding percentage vs wild-type CLDN18.2 (human CLDN18.2-mRFP E62A): 23.1% | binding percentage vs wild-type CLDN18.2 (human CLDN18.2-mRFP F44A): 70% | binding percentage vs wild-type CLDN18.2 (human CLDN18.2-mRFP S31A): 76.8% | binding percentage vs wild-type CLDN18.2 (human CLDN18.2-mRFP L72A): 53% | binding percentage vs wild-type CLDN18.2 (human CLDN18.2-mRFP Q33A): 59.8% | binding percentage vs wild-type CLDN18.2 (human CLDN18.2-mRFP T32A): 85.6% | binding percentage vs wild-type CLDN18.2 (human CLDN18.2-mRFP L70A): 82.1% | binding percentage vs wild-type CLDN18.2 (human CLDN18.2-mRFP T61A): 51.6% | binding percentage vs wild-type CLDN18.2 (human CLDN18.2-mRFP R55A): 49.7% | binding percentage vs wild-type CLDN18.2 (human CLDN18.2-mRFP V79A): 39.1% | binding percentage vs wild-type CLDN18.2 (human CLDN18.2-mRFP D34A): 96.3% | binding percentage vs wild-type CLDN18.2 (human CLDN18.2-mRFP N38A): 57.6% | binding percentage vs wild-type CLDN18.2 (human CLDN18.2-mRFP Q77A): 63.4% | binding percentage vs wild-type CLDN18.2 (human CLDN18.2-mRFP R51A): 22.1% | binding percentage vs wild-type CLDN18.2 (human CLDN18.2-mRFP L49A): 2.32% | binding percentage vs wild-type CLDN18.2 (human CLDN18.2-mRFP F60A): 64.4% | binding percentage vs wild-type CLDN18.2 (human CLDN18.2-mRFP W30A): 3.2% | binding percentage vs wild-type CLDN18.2 (human CLDN18.2-mRFP R80A): 13.6% | binding percentage vs wild-type CLDN18.2 (human CLDN18.2-mRFP Q47A): 57.5% | binding percentage vs wild-type CLDN18.2 (human CLDN18.2-mRFP T68A): 71.3% | binding percentage vs wild-type CLDN18.2 (human CLDN18.2-mRFP T41A): 41.6% | binding percentage vs wild-type CLDN18.2 (human CLDN18.2-mRFP R64A): 51% | binding percentage vs wild-type CLDN18.2 (human CLDN18.2-mRFP S58A): 39.4% | binding percentage vs wild-type CLDN18.2 (human CLDN18.2-mRFP F67A): 79.9% | binding percentage vs wild-type CLDN18.2 (human CLDN18.2-mRFP S57A): 77.2% | binding percentage vs wild-type CLDN18.2 (human CLDN18.2-mRFP V54A): 87.2% | binding percentage vs wild-type CLDN18.2 (human CLDN18.2-mRFP Y46A): 15% | binding percentage vs wild-type CLDN18.2 (human CLDN18.2-mRFP N37A): 60.7% | binding percentage vs wild-type CLDN18.2 (human CLDN18.2-mRFP W50A): 5.05%
